Results as given in US20250230222A1 (NORTHWESTERN UNIVERSITY, published 2025).

Target: SARS-nCoV-2 Spike RBD (Raybiotech, catalog no. 230-30162), recombinant wildtype (SARS-CoV-2, UniProt P0DTC2 319-541)

B1: IgG 106/107 (antibody, V domains shown)
VH: EVQLVESGGGLVQPGGSLRLSCVASGITVSANYMSWVRQAPGKGLEWVSVIYSGGSTFYADSVKGRFTISRDNSKNTLYLQMNNLRADDTAVYSCARDFRGATAFDIWGQGTMVTVSS
VL: QSALTQPASVSGSPGQSITISCTATSSDVDDYNYVSWYQQHPGKAPKLLIYDVNNRPSGVSNRFSGSKSGNTASLTISGLQAEDEADYYCSSYTSSSTGVFGSGTKVTVLG
- IC50: < 0.5 nM
